67 sequences from the supplement of paper PMC10724198 can be followed below.

± gives the standard deviation of the averaged measurements.

In this data set the test system is Saccharomyces cerevisiae. Put plainly: protein stability index of tFT-peptide fusion (C-terminal peptide) (PSI (0-1 scale)); higher = more stable (slower turnover). The settings on record: temperature: 30 C. As for the experimental part: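 MPS profiling in S. cerevisiae of the yeast C-terminome library: the last 12 aa of each annotated ORF are fused to the C-terminus of a sfGFP-mCherry timer, after a GGGS linker. Cells are FACS-sorted into 8 mCherry/sfGFP bins and deep-sequenced. PSI runs from 0 (unstable) to 1 (stable); wild type and das1Δ backgrounds, two technical replicates each.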

Setting [1] is: genetic background: das1 deletion.

Consider LAPLQFSGIVRS [YDR274C C-terminal 12 aa], for which the protein stability index by setting is: under setting [1], 0.6773 ± 0.0022; (genetic background: wild type) 0.682 ± 0.045.

Take LAVEETIGFGQE [RSP5 C-terminal 12 aa]: the protein stability index by setting is: under setting [1], 0.7037 ± 0.0066; (genetic background: wild type) 0.692 ± 0.011.

Turning to LAWNPNLSAKRF [PRP46 C-terminal 12 aa], the protein stability index is 0.71 ± 0.031 under setting [1] and 0.705 ± 0.021 (genetic background: wild type).

With LDDTPAPTATNL [NUD1 C-terminal 12 aa], the protein stability index under setting [1] came to 0.6857 ± 0.0035 and the protein stability index (genetic background: wild type) was 0.701 ± 0.034.

With LDIFCLIFRKRT [YPR076W C-terminal 12 aa], the protein stability index came out at 0.508 ± 0.031 under setting [1] and 0.5061 ± 0.00095 (genetic background: wild type).

LDSVFSKFCIGK [MSS1 C-terminal 12 aa] displayed a protein stability index under setting [1] of 0.7 ± 0.0095 and a protein stability index (genetic background: wild type) of 0.703 ± 0.082.

Turning to LEEETLPPSQKK [PYC2 C-terminal 12 aa], the protein stability index runs as follows: under setting [1], 0.694 ± 0.013; (genetic background: wild type) 0.647 ± 0.02.

With LEFVRGGSRQFT [TIM44 C-terminal 12 aa], the protein stability index came out at 0.689 ± 0.0081 under setting [1] and 0.713 ± 0.02 (genetic background: wild type).

LEKHTASDTSCI [YAL066W C-terminal 12 aa] came in with a protein stability index under setting [1] of 0.727 ± 0.025 and a protein stability index (genetic background: wild type) of 0.692 ± 0.072.

As for LENIKKAKEFFQ [GTR1 C-terminal 12 aa], the protein stability index was 0.726 ± 0.012 under setting [1] and 0.705 ± 0.027 (genetic background: wild type).

For LERLRYLFPNYW [MEU1 C-terminal 12 aa], the protein stability index stood at 0.738 ± 0.016 under setting [1] and 0.717 ± 0.051 (genetic background: wild type).

In the case of “LFFQDIERFFSC [YMR194C-A C-terminal 12 aa]”, the protein stability index amounted to 0.7717 ± 0.0042 under setting [1] and 0.7619 ± 0.0028 (genetic background: wild type).

As for LHVISKVAGKLF [SBH1 C-terminal 12 aa], the protein stability index is, setting by setting: under setting [1], 0.703 ± 0.022; (genetic background: wild type) 0.656 ± 0.014.

Consider LIDLCCSCAGGM [MNC1 C-terminal 12 aa], for which the protein stability index came to 0.685 ± 0.012 under setting [1] and 0.643 ± 0.0049 (genetic background: wild type).

“LIPELYSVLDGF [YDL007C-A C-terminal 12 aa]”: the protein stability index is, setting by setting: under setting [1], 0.7449 ± 0.0037; (genetic background: wild type) 0.74 ± 0.051.

On to LISEFQKKQAKK [MEF1 C-terminal 12 aa], for which the protein stability index by setting is: under setting [1], 0.7194 ± 0.0033; (genetic background: wild type) 0.691 ± 0.038.

On to LKDNLAKPKTRR [VBA2 C-terminal 12 aa], for which the protein stability index was found to be 0.715 ± 0.0088 under setting [1] and 0.708 ± 0.031 (genetic background: wild type).

Take LKILRQKMNHQN [ATG1 C-terminal 12 aa]: the protein stability index by setting is: under setting [1], 0.686 ± 0.013; (genetic background: wild type) 0.207 ± 0.042.

In the case of LKNGDKPHLLKF [RPL6B C-terminal 12 aa], the protein stability index was 0.714 ± 0.038 under setting [1] and 0.686 ± 0.015 (genetic background: wild type).

As for LKRVVTKAMSSR [SSB1 C-terminal 12 aa], the protein stability index under setting [1] was determined as 0.714 ± 0.012 and the protein stability index (genetic background: wild type) was 0.6864 ± 0.0039.

As for LKSGEKESNASK [SDC1 C-terminal 12 aa], the protein stability index is, setting by setting: under setting [1], 0.678 ± 0.0026; (genetic background: wild type) 0.652 ± 0.013.

Regarding LLCFRPTRGCGP [YCL041C C-terminal 12 aa], the protein stability index is, setting by setting: under setting [1], 0.7091 ± 0.0046; (genetic background: wild type) 0.687 ± 0.013.

As for LLDAIELYQRHK [HEM4 C-terminal 12 aa], the protein stability index under setting [1] worked out at 0.698 ± 0.017 and the protein stability index (genetic background: wild type) amounted to 0.6704 ± 0.0026.

For the sequence LLEDLRSRIDLD [MLO50 C-terminal 12 aa], the protein stability index was 0.685 ± 0.048 under setting [1] and 0.744 ± 0.087 (genetic background: wild type).

For the sequence LLHTVMNENKLP [LST7 C-terminal 12 aa], the protein stability index runs as follows: under setting [1], 0.716 ± 0.03; (genetic background: wild type) 0.687 ± 0.054.

LLILLVLFSKFK [VTI1 C-terminal 12 aa]: the protein stability index is, setting by setting: under setting [1], 0.295 ± 0.02; (genetic background: wild type) 0.302 ± 0.0073.

Turning to LMESEREARRLR [RPS28A C-terminal 12 aa], the protein stability index worked out at 0.708 ± 0.01 under setting [1] and 0.6762 ± 0.0022 (genetic background: wild type).

Take LMKLFKSSKFSK [GEM1 C-terminal 12 aa]: the protein stability index runs as follows: under setting [1], 0.724 ± 0.024; (genetic background: wild type) 0.694 ± 0.077.

Consider LMVPDPWYREGN [FAB1 C-terminal 12 aa], for which the protein stability index is 0.726 ± 0.018 under setting [1] and 0.721 ± 0.031 (genetic background: wild type).

For LNDLSNVRHSKT [HER1 C-terminal 12 aa], the protein stability index reads like this: under setting [1], 0.6893 ± 0.0035; (genetic background: wild type) 0.675 ± 0.022.

Turning to LNNLSMERSIRL [GIP3 C-terminal 12 aa], the protein stability index worked out at 0.715 ± 0.015 under setting [1] and 0.666 ± 0.014 (genetic background: wild type).

LNRKWYTRFFFP [MNN10 C-terminal 12 aa] returned a protein stability index under setting [1] of 0.732 ± 0.012 and a protein stability index (genetic background: wild type) of 0.702 ± 0.035.

Consider LPIWDPMGALAK [LAP3 C-terminal 12 aa], for which the protein stability index amounted to 0.703 ± 0.0072 under setting [1] and 0.739 ± 0.06 (genetic background: wild type).

On to LPKPAGWQNHIG [KTR1 C-terminal 12 aa], for which the protein stability index is 0.7014 ± 0.0053 under setting [1] and 0.68 ± 0.009 (genetic background: wild type).

As for LPNTISSETFLK [SCEI C-terminal 12 aa], the protein stability index under setting [1] is 0.661 ± 0.0076 and the protein stability index (genetic background: wild type) was 0.702 ± 0.018.

For the sequence LPQSTLQENQLS [SKN7 C-terminal 12 aa], the protein stability index by setting is: under setting [1], 0.706 ± 0.024; (genetic background: wild type) 0.622 ± 0.028.

Regarding LQVSQEFTTKTQ [NUP82 C-terminal 12 aa], the protein stability index reads like this: under setting [1], 0.676 ± 0.034; (genetic background: wild type) 0.709 ± 0.048.

Consider LRIVACNSKKSE [TOA2 C-terminal 12 aa], for which the protein stability index was 0.673 ± 0.027 under setting [1] and 0.649 ± 0.022 (genetic background: wild type).

In the case of LRSCDLKRKSKK [YLR302C C-terminal 12 aa], the protein stability index by setting is: under setting [1], 0.678 ± 0.037; (genetic background: wild type) 0.68 ± 0.028.

For the sequence LSDLHIKEAKID [OGG1 C-terminal 12 aa], the protein stability index reads like this: under setting [1], 0.7101 ± 0.0056; (genetic background: wild type) 0.568 ± 0.021.

Consider LSDLRAWTLKVA [YDR491C C-terminal 12 aa], for which the protein stability index by setting is: under setting [1], 0.7058 ± 0.0027; (genetic background: wild type) 0.329 ± 0.0064.

Turning to LSDYLSHDFASC [YNL040W C-terminal 12 aa], the protein stability index runs as follows: under setting [1], 0.688 ± 0.011; (genetic background: wild type) 0.694 ± 0.04.

For LSFFGILKYCFL [TSC3 C-terminal 12 aa], the protein stability index runs as follows: under setting [1], 0.6491 ± 0.0031; (genetic background: wild type) 0.618 ± 0.027.

LSIAAGVGFALV [GAS1 C-terminal 12 aa]: the protein stability index runs as follows: under setting [1], 0.657 ± 0.007; (genetic background: wild type) 0.653 ± 0.0083.

Take “LSKKTSGTHTTH [YBR182C-A C-terminal 12 aa]”: the protein stability index reads like this: under setting [1], 0.681 ± 0.015; (genetic background: wild type) 0.6949 ± 0.005.

As for LSQRAWATKKPI [YJL028W C-terminal 12 aa], the protein stability index by setting is: under setting [1], 0.696 ± 0.012; (genetic background: wild type) 0.732 ± 0.077.

With LSRYTRVLLMFM [YBR178W C-terminal 12 aa], the protein stability index reads like this: under setting [1], 0.632 ± 0.02; (genetic background: wild type) 0.455 ± 0.014.

As for LSSVKVRQLRNM [RBH2 C-terminal 12 aa], the protein stability index was determined as 0.681 ± 0.021 under setting [1] and 0.205 ± 0.0043 (genetic background: wild type).

Turning to LSTWDARTPILD [GPI2 C-terminal 12 aa], the protein stability index was 0.705 ± 0.0016 under setting [1] and 0.703 ± 0.0087 (genetic background: wild type).

Take LTALLETVNKYR [GCG1 C-terminal 12 aa]: the protein stability index was determined as 0.7 ± 0.016 under setting [1] and 0.682 ± 0.014 (genetic background: wild type).

Turning to LTTISLYLMLKL [YGL262W C-terminal 12 aa], the protein stability index was found to be 0.382 ± 0.021 under setting [1] and 0.351 ± 0.0079 (genetic background: wild type).

For the sequence LVAIDPRSEAYC [YMR324C C-terminal 12 aa], the protein stability index turned out to be 0.68838 ± 0.00058 under setting [1] and 0.671 ± 0.012 (genetic background: wild type).

Consider LVKHTYKRSSSS [VBA1 C-terminal 12 aa], for which the protein stability index came to 0.705 ± 0.029 under setting [1] and 0.656 ± 0.019 (genetic background: wild type).

With “LVSNSDTNIVWP [YMR247W-A C-terminal 12 aa]”, the protein stability index is, setting by setting: under setting [1], 0.68696 ± 0.00059; (genetic background: wild type) 0.712 ± 0.015.

LVSQRITGPGVF [ASI2 C-terminal 12 aa]: the protein stability index was 0.687 ± 0.0099 under setting [1] and 0.681 ± 0.0099 (genetic background: wild type).

For “LWVTLLPEFTNF [YBR121C-A C-terminal 12 aa]”, the protein stability index turned out to be 0.768 ± 0.018 under setting [1] and 0.75 ± 0.029 (genetic background: wild type).

For LYFLVKSFLSIV [HMX1 C-terminal 12 aa], the protein stability index is, setting by setting: under setting [1], 0.668 ± 0.14; (genetic background: wild type) 0.282 ± 0.12.

For the sequence MEDEDMVDVIID [ESC2 C-terminal 12 aa], the protein stability index came to 0.689 ± 0.02 under setting [1] and 0.7232 ± 0.0017 (genetic background: wild type).

In the case of MGVVAAVGVALL [ECM33 C-terminal 12 aa], the protein stability index turned out to be 0.678 ± 0.019 under setting [1] and 0.642 ± 0.0081 (genetic background: wild type).

Take MHSNFQNLFNLK [CLB5 C-terminal 12 aa]: the protein stability index is, setting by setting: under setting [1], 0.708 ± 0.026; (genetic background: wild type) 0.707 ± 0.026.

Turning to MKSKKIDIKGQK [THP3 C-terminal 12 aa], the protein stability index runs as follows: under setting [1], 0.705 ± 0.03; (genetic background: wild type) 0.665 ± 0.018.

Turning to “MSLRKYVSVCSM [YHL006W-A C-terminal 12 aa]”, the protein stability index was 0.5 ± 0.012 under setting [1] and 0.513 ± 0.0063 (genetic background: wild type).

With “MVTNDGFGSTVL [YLR379W-A C-terminal 12 aa]”, the protein stability index reads like this: under setting [1], 0.698 ± 0.013; (genetic background: wild type) 0.734 ± 0.029.

Consider NDDDEDDDDFFD [SDD2 C-terminal 12 aa], for which the protein stability index reads like this: under setting [1], 0.723 ± 0.015; (genetic background: wild type) 0.6947 ± 0.0056.

As for NDLITYLKKACE [CYC1 C-terminal 12 aa], the protein stability index is, setting by setting: under setting [1], 0.68 ± 0.01; (genetic background: wild type) 0.683 ± 0.011.

On to NDSDGTILIPDI [ZDS2 C-terminal 12 aa], for which the protein stability index was 0.6982 ± 0.0057 under setting [1] and 0.713 ± 0.041 (genetic background: wild type).

Take NDSEPESEYQQE [CUB1 C-terminal 12 aa]: the protein stability index reads like this: under setting [1], 0.6922 ± 0.0057; (genetic background: wild type) 0.713 ± 0.0081.
